Target: T1, HLA-A*24
T1 construct: Monomers captured on streptavidin plates; also called peptide-receptive MHC molecules; MHC complexes
Experiment: UV peptide-exchange ELISA (anti-b2m); yield grade ++++ = >75%
Source text: Candidate peptides for T cell based therapies according to the present invention were further tested for their MHC binding capacity (affinity). The individual peptide-MHC complexes were produced by UV-ligand exchange, where a UV-sensitive peptide is cleaved upon UV-irradiation, and exchanged with the peptide of interest as analyzed. Only peptide candidates that can effectively bind and stabilize the peptide-receptive MHC molecules prevent dissociation of the MHC complexes. To determine the yield of the exchange reaction, an ELISA was performed based on the detection of the light chain (p2m) of stabilized MHC complexes. The assay was performed as generally described in Rodenko et al. (Rodenko et al., 2006)
96 well MAXISorp plates (NUNC) were coated over night with 2 ug/ml streptavidin in PBS at room temperature, washed 4× and blocked for 1 h at 37° C. in 2% BSA containing blocking buffer. Refolded HLA-A*02:01/MLA-001 monomers served as standards, covering the range of 15-500 ng/ml. Peptide-MHC monomers of the UV-exchange reaction were diluted 100-fold in blocking buffer. Samples were incubated for 1 h at 37° C., washed four times, incubated with 2 ug/ml HRP conjugated anti-β2m for 1h at 37° C., washed again and detected with TMB solution that is stopped with […]. Absorption was measured at 450 nm. Candidate peptides that show a high exchange yield (preferably higher than 50%, most preferred higher than 75%) are generally preferred for a generation and production of antibodies or fragments thereof, and/or T cell receptors or fragments thereof, as they show sufficient avidity to the MHC molecules and prevent dissociation of the MHC complexes.

For IFPKTGLLII (also called IFPKTGLLII) [MAGEA4-008], the peptide exchange yield was over 75%.

VYSNPDLFW (also called VYSNPDLFW) [TRDV3-002] showed a peptide exchange yield of over 75%.

LYPDSVFGRLF (also called LYPDSVFGRLF) [SMC1B-003] showed a peptide exchange yield of over 75%.

Binder ALMSAFYTF (also called ALMSAFYTF) [MMP11-020] has a peptide exchange yield of over 75%.

IFLPFFIVF (also called IFLPFFIVF) [ADAM18-001] gave a peptide exchange yield of over 75%.

Work on YYIATMALI (also called YYIATMALI) [CHRNA9-004] yielded a peptide exchange yield of over 75%.

VYAFMNENF (also called VYAFMNENF) [QRFPR-004] gave a peptide exchange yield of over 75%.

Work on FFLQESPVF (also called FFLQESPVF) [ABCC11-004] yielded a peptide exchange yield of over 75%.

Binder LYYGSILYI (also called LYYGSILYI) [OR9-001] has a peptide exchange yield of over 75%.

Work on AFQNVISSF (also called AFQNVISSF) [NMUR2-003] yielded a peptide exchange yield of over 75%.

IYVSLAHVL (also called IYVSLAHVL) [ANO7-002] showed a peptide exchange yield of over 75%.

With FFYVTETTF (also called FFYVTETTF) [TERT-003] the peptide exchange yield was over 75%.

Work on IYSSQLPSF (also called IYSSQLPSF) [TFEC-004] yielded a peptide exchange yield of over 75%.

AYAPRGSIYKF (also called AYAPRGSIYKF) [HHIPL2-001] gave a peptide exchange yield of over 75%.

Work on PYWWNANMVF (also called PYWWNANMVF) [NOTU-001] yielded a peptide exchange yield of over 75%.

MYTIVTPML (also called MYTIVTPML) [OR1N1-001] showed a peptide exchange yield of over 75%.

In the case of IYPEAIATL (also called IYPEAIATL) [SLC6A3-002], the peptide exchange yield is reported as over 75%.

In the case of AWSPPATLF (also called AWSPPATLF) [LOXL4-002], the peptide exchange yield is reported as over 75%.

For PYSIYPHGVTF (also called PYSIYPHGVTF) [F5-006], the peptide exchange yield was over 75%.

KYVDINTFRL (also called KYVDINTFRL) [MMP12-018] was tested, and the peptide exchange yield was over 75%.

YYIGIVEEYW (also called YYIGIVEEYW) [HEPHL-008] was tested, and the peptide exchange yield was over 75%.

LSSPVHLDF (also called LSSPVHLDF) [FCRL5-007] showed a peptide exchange yield of over 75%.

MYDLHHLYL (also called MYDLHHLYL) [EPY-001] gave a peptide exchange yield of over 75%.

With IFIPATILL (also called IFIPATILL) [ACSM1-001] the peptide exchange yield was over 75%.

Work on LYTVPFNLI (also called LYTVPFNLI) [SLC45A2-006] yielded a peptide exchange yield of over 75%.

RYFIAAEKILW (also called RYFIAAEKILW) [HEPHL-005] gave a peptide exchange yield of over 75%.

With RYLSVCERL (also called RYLSVCERL) [NKX-001] the peptide exchange yield was over 75%.

TQAGEYLLF (also called TQAGEYLLF) [FLT3-012] was tested, and the peptide exchange yield was over 75%.

KYLITTFSL (also called KYLITTFSL) [NLRP2-008] was tested, and the peptide exchange yield was over 75%.

Binder AYPQIRCTW (also called AYPQIRCTW) [FLT3-009] has a peptide exchange yield of over 75%.

IYNKTKMAF (also called IYNKTKMAF) [SLCO6-001] showed a peptide exchange yield of over 75%.

For LYICKVELM (also called LYICKVELM) [CTL-001], the peptide exchange yield was over 75%.

For CYSFIHLSF (also called CYSFIHLSF) [NLR-006], the peptide exchange yield was over 75%.

Binder IYNEHGIQQI (also called IYNEHGIQQI) [COL11A1-003] has a peptide exchange yield of over 75%.

With LYMSVEDFI (also called LYMSVEDFI) [STK31-001] the peptide exchange yield was over 75%.

VFPSVDVSF (also called VFPSVDVSF) [PTP-043] was tested, and the peptide exchange yield was over 75%.

Binder ISWEVVHTVF (also called ISWEVVHTVF) [HMCN1-008] has a peptide exchange yield of over 75%.

For IYKFIMDRF (also called IYKFIMDRF) [FOXB1-001], the peptide exchange yield was over 75%.

Work on QYLQQQAKL (also called QYLQQQAKL) [FOXB1-002] yielded a peptide exchange yield of over 75%.

FYNRLTKLF (also called FYNRLTKLF) [OFCC-001] showed a peptide exchange yield of over 75%.

With LYAPTILLW (also called LYAPTILLW) [AFP-001] the peptide exchange yield was over 75%.

QRYGFSSVGF (also called QRYGFSSVGF) [RHBG-001] gave a peptide exchange yield of over 75%.

Work on FYFYNCSSL (also called FYFYNCSSL) [ERV-001] yielded a peptide exchange yield of over 75%.

Binder TYATHVTEI (also called TYATHVTEI) [CCR8-004] has a peptide exchange yield of over 75%.

With HYHAESFLF (also called HYHAESFLF) [HEPHL-003] the peptide exchange yield was over 75%.

For AYLQFLSVL (also called AYLQFLSVL) [GREB-002], the peptide exchange yield was over 75%.

MLPEASLLI (also called MLPEASLLI) [NLRP4-005] was tested, and the peptide exchange yield was over 75%.

Work on TYSTNRTMI (also called TYSTNRTMI) [FLT3-013] yielded a peptide exchange yield of over 75%.

RWLSKPSLL (also called RWLSKPSLL) [KBTBD8-004] was tested, and the peptide exchange yield was over 75%.

Binder IWPGFTTSI (also called IWPGFTTSI) [PIWIL1-003] has a peptide exchange yield of over 75%.

VYISDVSVY (also called VYISDVSVY) [CLECL-003] gave a peptide exchange yield of over 75%.

TYFFVDNQYW (also called TYFFVDNQYW) [MMP12-020] gave a peptide exchange yield of over 75%.

IYTFSNVTF (also called IYTFSNVTF) [BTN1-003] gave a peptide exchange yield of over 75%.

QKYYITGEAEGF (also called QKYYITGEAEGF) [ESR1-009] was tested, and the peptide exchange yield was over 75%.

Work on SYTPLLSYI (also called SYTPLLSYI) [C1orf94-002] yielded a peptide exchange yield of over 75%.

TYIDTRTVFL (also called TYIDTRTVFL) [CAPN6-005] gave a peptide exchange yield of over 75%.

For VLPLHFLPF (also called VLPLHFLPF) [HBG2-001], the peptide exchange yield was over 75%.

KIYTTVLFANI (also called KIYTTVLFANI) [NPFFR2-003] was tested, and the peptide exchange yield was over 75%.

In the case of VYSDRQIYLL (also called VYSDRQIYLL) [ABCC11-006], the peptide exchange yield is reported as over 75%.

Binder DYLLSWLLF (also called DYLLSWLLF) [CNR2-003] has a peptide exchange yield of over 75%.

VYLDEKQHAW (also called VYLDEKQHAW) [TCL1A-005] gave a peptide exchange yield of over 75%.

AYVTEFVSL (also called AYVTEFVSL) [SCN3A-001] was tested, and the peptide exchange yield was over 75%.

With FWFDSREISF (also called FWFDSREISF) [OR51E2-002] the peptide exchange yield was over 75%.

Binder IYLLLPPVI (also called IYLLLPPVI) [OR51E2-004] has a peptide exchange yield of over 75%.

Binder PEYSLPVLTF (also called PEYSLPVLTF) [PTP-040] has a peptide exchange yield of over 75%.

Work on KFLGSKCSF (also called KFLGSKCSF) [HAS3-003] yielded a peptide exchange yield of over 75%.

With YFLPGPHYF (also called YFLPGPHYF) [SOX30-001] the peptide exchange yield was over 75%.

Source: US20190352359A1 (IMMATICS BIOTECHNOLOGIES, published 2019)
